Assay [1] has as its target T1, human BCMA expressed on cells (human, UniProt Q02223 1-184).
T1 construct: whole, on cells; also called human BCMA HEK293; ARH77-hBCMA 10B5 BCMA expressing transfectant cells
T1 sequence (looked up): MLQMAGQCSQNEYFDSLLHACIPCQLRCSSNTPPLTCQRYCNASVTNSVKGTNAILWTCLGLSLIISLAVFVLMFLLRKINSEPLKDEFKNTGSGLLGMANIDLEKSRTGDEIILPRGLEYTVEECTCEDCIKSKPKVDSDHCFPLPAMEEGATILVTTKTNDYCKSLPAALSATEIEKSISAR
The assay is described as follows: FACS on H929 multiple myeloma cells, antibody 5 µg/mL, PE anti-mouse IgG. How it is done: (§1) Cells were incubated for 20 mins at room temperature (RT) and then washed with FACS buffer (PBS+0.5% BSA+0.1% sodium azide) to remove unbound antibody. Cells were incubated with a secondary PE labelled anti-mouse IgG antibody for 15 minutes at RT and then washed with FACS buffer to remove unbound antibody. Cells were analysed by FACS to detect antibody bound to the cells.

Assay [2] has as its target T1, human BCMA expressed on cells. The assay is described as follows: FACS on ARH77-hBCMA 10B5 transfectant cells, antibody 5 µg/mL, PE anti-mouse IgG. The protocol:
as §1

The target in assay [3] is T2, recombinant human BCMA, in house material (human, UniProt Q02223 4-53, limits assumed).
T2 construct: also called Human in house BCMA; In house human BCMA
The assay is described as follows: ProteOn SPR, antibody captured on Protein A, 25C. The protocol: The initial screen of the new chimeric variants from the second batch of hybridomas was carried out on the ProteOn XPR36 (Biorad). The method was as follows; Protein A was immobilised on a GLM chip (Biorad, Cat No: 176-5012) by primary amine coupling, anti-BCMA variants were then captured on this surface and recombinant human BCMA (in house material) passed over at 256, 64, 16, 4, 1 nM with a 0 nM injection (i.e. buffer alone) used to double reference the binding curves, the buffer used is the HBS-EP buffer. Regeneration of the capture surface was carried out using 50 mM NaOH. The data was fitted to the 1:1 model using the analysis software inherent to the ProteOn XPR36. The run was carried out at 25° C.

Assay [4] addresses T1, human BCMA expressed on cells. The assay is described as follows: cell-based or functional assay.
Assay [5] concerns the target T3, recombinant human BCMA Fc 4-53 (human).
T3 construct: also called Human BCMA CD33-hBCMA ECD (4-53) TEV-Fc; recombinant BCMA
The assay is described as follows: competition ELISA: binding of recombinant human BAFF to coated recombinant human BCMA Fc 4-53, biotinylated anti-BAFF and streptavidin-HRP, % of control. How it is done:
(§2) 96 well flat bottomed plates were coated overnight with 1 μg/mL solution of recombinant human BCMA Fc 4-53 in PBS. Following a wash step using 0.05% TWEEN20, plates were blocked with 2% Bovine Serum Albumin solution in PBS for 1 hour at room temperature. […] 40 μL of 2% BSA was added to the relevant control wells. […] Equivalent volume of 2% BSA was added to the relevant control wells. Plates were allowed to incubate for 2 hours at room temperature, after which they were washed as before. […] Following a wash step, 50 µL of a 1:4000 dilution of Streptavidin-HRP (Amersham RPN4401) was added to each well and incubated for 30 minutes at room temperature. The wash process was repeated again followed by the addition of […] of Tetramethylbenzidine substrate solution (T8665, Sigma) into each well. Plates were incubated for 20-25 minutes at room temperature, wrapped in foil. The reaction was stopped with the addition of […] of 1M H₂SO₄. Optical density was determined at 450 nm using Spectromax reader.

Assay [6] concerns the target T3, recombinant human BCMA Fc 4-53. The assay is described as follows: ELISA, neutralisation of ligand binding to plate-coated BCMA Fc 4-53; competitor BAFF; competitor BAFF. The protocol: as §2
Assay [7] shares this target. The assay is described as follows: competition ELISA: binding of recombinant human APRIL to coated recombinant human BCMA Fc 4-53, biotinylated anti-APRIL and streptavidin-HRP, % of control. The protocol:
as §2

The target is the same in assay [8]. The assay is described as follows: ELISA, neutralisation of ligand binding to plate-coated BCMA Fc 4-53; competitor APRIL; competitor APRIL. How it is done:
as §2

Assay [9] addresses T4, recombinant human BCMA, commercial (US Biological, B0410) (human, UniProt Q02223 5-54, limits assumed).
T4 construct: also called commercial human BCMA; Human commercial BCMA
T4 chain (looked up): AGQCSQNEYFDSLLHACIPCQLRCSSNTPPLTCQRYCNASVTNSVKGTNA
The assay is described as follows: Biacore T100, antibody captured on Protein A, 37C, experiment 1. The protocol: (§3) Protein A was immobilised on a CMS chip (GE Healthcare, Cat No: BR-1005-30) by primary amine coupling and this surface was then used to capture the antibody molecules. Recombinant human BCMA (US Biological, B0410) was used as analyte at 256 nM, 64 nM, 16 nM, 4 nM and 1 nM. Regeneration of the capture surface was carried out using 50 mM NaOH. All binding curves were double referenced with a buffer injection (i.e. 0 nM) the data was fitted to the using the 1:1 model inherent to T100 evaluation software. The run was carried out at 25° C. and 37° C. for experiment 1 and only 37° C. for experiment 2 using HBS-EP as the running buffer.

For assay [10], the target named is T1, human BCMA expressed on cells. The assay is described as follows: FACS on ARH77-hBCMA 10B5 transfectant cells, PE anti-human IgG, MFI. The protocol:
Cells were then washed with FACS buffer (PBS+0.5% BSA+0.1% sodium azide) to remove unbound antibody. Cells were incubated with a secondary PE labelled anti-human IgG antibody for 15 minutes at RT and then washed with FACS buffer to remove unbound antibody. Cells were analysed by FACS and mean fluorescence intensity (MFI) values measured to determine binding.

Assay [11] has as its target T4, recombinant human BCMA, commercial (US …). The assay is described as follows: Biacore T100, antibody captured on Protein A, 37C, experiment 2. The protocol:
as §3

For assay [12], the target named is T2, recombinant human BCMA, in house …. The assay is described as follows: ProteOn SPR run 2, antibody captured on Protein A, 25C; Run 2 (Table 9). How it is done:
(§4) The initial screen of CA8 chimeric and humanised variants was carried out on the ProteOn XPR36 (Biorad). The method was as follows; Protein A was immobilised on a GLC chip (Biorad, Cat No: 176-5011) by primary amine coupling, CA8 variants were then captured on this surface and recombinant human BCMA (in house or commercial US Biological, B0410) materials (run 2 only)) passed over at 256, 64, 16, 4, 1 nM with a 0 nM injection (i.e. buffer alone) used to double reference the binding curves, the buffer used is the HBS-EP buffer. 50 mM NaOH was used to regenerate the capture surface. The data was fitted to the 1:1 model using the analysis software inherent to the ProteOn XPR36. […] Both runs were carried out at 25° C.

The target in assay [13] is T4, recombinant human BCMA, commercial (US …). The assay is described as follows: ProteOn SPR run 2, antibody captured on Protein A, 25C.
Assay [14] deals with T5, recombinant cyno BCMA, in house material (cyno, UniProt A0A2K5UD97 4-52).
T5 construct: also called Cyno in house BCMA
Described as above.

The target in assay [15] is T4, recombinant human BCMA, commercial (US …). The assay is described as follows: Biacore T100, antibody captured on Protein A, 25C, experiment 1. How it is done:
as §3

Assay [16] addresses T2, recombinant human BCMA, in house …. The assay is described as follows: ProteOn SPR run 1, antibody captured on Protein A, 25C; Run 1 (Table 8). How it is done:
as §4

Positions count from the first letter of the chain named.

B1: murine S332121F02 (antibody, V domains shown)
VH: EVQLQQSGPVLVKPGASVKMSCEASGYTFTDYYMNWVKQSHGKTLEWIGVINPYNGGTDYNQKFKGKATLTVDKSSSTAYMELNSLTSEDSAVYYCARSVYDYPFDYWGQGTLVTVSS
VL: DIVLTQSPASLAVSLGQRATISCRASESVSIHGTHLMHWYQQKPGQPPKLLIYAASNLESGVPARFSGSGSETDFTLNIHPVEEEDAATYFCQQSIEDPRTFGGGTKLEIK
notes: Murine hybridoma antibody
B1: the binding result in assay [1] is reported as “binds”.

B2: murine S332126E04 (antibody, V domains shown)
VH: QVQLQQPGAELVKPGASVKLSCKASGYTFTNYWMHWVKQRPGQGLEWIGIIHPNSGSTNYNEKFKSKATLTVDKSSSTAYMQLSSLTSEDSAVYYCARGIYDYPFAYWGQGTLVTVSS
VL: DIVLTQSPASLAVSLGQRATISCRASESVSIHGTHLMHWYQQKPGQPPKLLIYAASNLESGVPARFSGSGSETDFTLNIHPVEEEDAATYFCQQSIEDPYTFGGGTKLEIKR
notes: Murine hybridoma antibody
In the case of B2, the binding result in assay [2] is “binds”.

B3: S332121F02 chimeric antibody (antibody, human IgG1, kappa, V domains shown)
VH: B1 VH
VL: B2 VL with Y100R
notes: Section 4.10 says that the samples are new chimeric constructs (human IgG1 kappa)
B3: in [3], the Kd was 17.3 nM.

B4: J6M0 potelligent antibody (afucosylated humanised CA8 J6M0) (antibody, human IgG1, kappa, V domains shown)
VH: QVQLVQSGAEVKKPGSSVKVSCKASGGTFSNYWMHWVRQAPGQGLEWMGATYRGHSDTYYNQKFKGRVTITADKSTSTAYMELSSLRSEDTAVYYCARGAIYDGYDVLDNWGQGTLVTVSS
VL: DIQMTQSPSSLSASVGDRVTITCSASQDISNYLNWYQQKPGKAPKLLIYYTSNLHSGVPSRFSGSGSGTDFTLTISSLQPEDFATYYCQQYRKLPWTFGQGTKLEIKR
modifications: afucosylated (Potelligent) Fc glycan
notes: human IgG1 kappa; also called J6M0 potelligent version; CA8 J6M0 Potelligent
Regarding B4, the “IC50 for inhibition of APRIL signalling (phosphorylated NFkappaB in washed H-929 cells)” value in assay [4] worked out at 2.43 µg/mL. Moreover, the “IC50 for inhibition of BAFF signalling (phosphorylated NFkappaB in washed H-929 cells)” value in [4] is 0.91 µg/mL. In addition, the “IC50 (read off the curve)” value in assay [5] is ~700 ng/mL; in [7], ~600 ng/mL. For the same molecule, the EC50 was 0.748 µg/mL in assay [6] and 0.616 µg/mL in assay [8].

B5: CA8 humanised J6M0 (antibody, human IgG1, kappa, V domains shown)
VH: B4 VH
VL: B4 VL
notes: Humanised CA8, heavy chain J6 with light chain M0, human IgG1 kappa; also called CA8 J6M0; humanised J6M0 (wild type)
Regarding B5, the Kd in assay [9] was 0.698 nM; in assay [11] it was 0.498 nM; in assay [12], 0.308 nM; in assay [13] it was 0.086 nM; in [14], 5.63 nM; in assay [15], 0.121 nM. Further, the binding result in assay [10] is reported as “binds”. Moreover, the figures for the “IC50 (read off the curve)” value in [5] and in assay [7] were ~700 ng/mL and ~600 ng/mL, respectively. Moreover, the EC50 amounted to 0.776 µg/mL in assay [6] and 0.63 µg/mL in assay [8].

B6: S307118G03 Chimera (antibody, human IgG1, kappa, V domains shown)
VH: EVQLQQSGPELVKPGASVKISCKASGYTFTDYYMKWVKQSHGKSLEWIGEIYPNNGGITYNQKFKGKATLTVDKSSSTAYMELRSLTSEDSAVYYCANGYEFVYWGQGTLVTVSA
VL: DIQMTQTASSLSASLGDRVTISCSASQGISNYLNWYQQKPDGTVKLLIYYTSSLHSGVPSRFSGSGSGTDYSLTISNLEPEDIATYYCQQYSKLPWTFGGGTKLELKR
notes: also called chimeric S307118G03
B6: the figures for the Kd in [16], in assay [12] and in [13] were 4.11 nM, 3.44 nM and 0.956 nM, respectively. In addition, in [14], the binding result is “no binding”.

B7: murine S322110D07 (antibody, V domains shown)
VH: EVQLQQSGPELVKPGTSVKIPCKTSGYIFTDYSIDWVKQSHGKSLEWIGDIDPNYGDPIYNHKFKGKATLTVDRSSSTAYMELRSLTSEDTAVYFCARRATGTDWFAFWGQGTLVTVSS
VL: DIQMTQSPASLSVSVGETVTITCRASENIYNNLAWYQQKQGKSPQLLVYAATILADGVPSRFSGSGSGTQYSLKINSLQSGDFGTYYCQHFWGTPLTFGAGTKLELKR
notes: Murine hybridoma antibody; also called S3222110D07; S3322110D07
With B7, the binding result in assay [1] is given as “binds”.

B8: S322110D07 chimeric antibody (printed S332110D07 in Table 12) (antibody, human IgG1, kappa, V domains shown)
VH: B7 VH
VL: B7 VL
notes: Section 4.10 says that the samples are new chimeric constructs (human IgG1 kappa); also called chimeric S322110D07
In the case of B8, the Kd in [3] was found to be 12.1 nM.

The values above are taken from patent US20230137032A1 (GlaxoSmithKline, published 2023).
